A short description of the data set: yeast display, Sf9 membrane polyspecificity reagent, FACS + sequencing; frameworks hold sequencing errors. In outline:
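A nanobody's polyreactivity label depends on the gate it was sorted from. Yeast display cells were stained with 10% biotinylated, detergent-solubilized Sf9 membrane reagent for 1 hour at 4 °C, enriched on streptavidin microbeads and sorted by FACS. The low and high (top ~1%) gates were set on anti-HA fluorescence for expression and streptavidin fluorescence for reagent binding.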
For “QVQLVESGGGLVQAGGSLRLSCAASGSIFTKYAMGWYIQAPGKEREFVAAITLSGGSTYYADSVKGRFTISRDNAKNTVYLQMNSLKPEDTAVYYCNAAYTYVTAWYYYWGQGTQVTVSS”, the “polyreactivity (PSR sort gate)” value is on record as “high polyreactivity”.
Then “QVQLVESGGGLVQAGGSLRLSCAASGSIFTKYAMGWYRQAPGKERELVAAINARGGSTYYADSVKGRFTISRDNAKNTVYLQMNSLKPEDTAVYYCAARYGVGRADYYWGQGTQVTVSS”, with “high polyreactivity”; and “QVQLVESGGGLVQAGGSLRLSCAASGSIFTLYAMGWYRQAPGKERELVAAITRSGGSTYYADSVKGRFTISRDNAKNTVYLQMNSLKPEDTAVYYCAADKAPYSTEGDYWGQGTQVTVSS”, with “high polyreactivity”; and “QVQLVESGGGLVQAGGSLRLSCAASGSIFTLYSMGWYRQAPGKERELVATINWSGGSTSYADSVKGRFTISRDNAKYTVYLQMNSLKADDTAVYYCAADYYFWHGTGYDYWGQGTQVNVSS”, with “low polyreactivity”.
In the case of “QVQLVESGGGLVQAGGSLRLSCAASGSIFTNYAMGWYRQAPGKERELVAAISVGGGRTYYADSVKGRFTISRDNAKNTVYLQMNSLKPEDTAVYYCAASRRTRSMNYWGQGTQVTVSS” it was “high polyreactivity”; in that of “QVQLVESGGGLVQAGGSLRLSCAASGSIFTNYPMGCYRQAPGKERELVAAISQSGDTTYYADSVKGRFTISRDNAKNTVYLQMNSLKPEDSSVYYCAAQYYRWFYYWGQGTQVTVSS”, “high polyreactivity”; in that of “QVQLVESGGGLVQAGGSLRLSCAASGSIFTPYAMGWSRQAPGKLRELVADISRSGSTNYADSVKGRFTISRDNAKNTVYLQMNSLKPEDTAVYYCNADFWWHWGTSYVYWGQGTQVTVSS”, “high polyreactivity”.
Then “QVQLVESGGGLVQAGGSLRLSCAASGSIFTPYAMGWYRQAPGKEREFVADIDDSGGGTYADSVKGRFTISRDNAKNTVYLQMNSLKPEDTAVYYCNADTGIWDYRFVDRDYWGQGTQVTVSW”, with “low polyreactivity”.
For “QVQLVESGGGLVQAGGSLRLSCAASGSIFTPYAMGWYRQAPGKERELVAGIRSSGGRTYYADSVKGRFTISRDNAKNTVYLQMNSLKPEDTAVYYCAARVGGIYRNDYWGQGTQVTVSS”, the “polyreactivity (PSR sort gate)” value is “low polyreactivity”.
In the case of “QVQLVESGGGLVQAGGSLRLSCAASGSIFTQNAMGWYRQAPGKERELVAAITSTGGSTYYADSVKGRFTISRDNAKNTVYLQMNSLKPEDTAVYYCNADGFRRAALHDYWGQGTQVTVSS” it was “high polyreactivity”; in that of “QVQLVESGGGLVQAGGSLRLSCAASGSIFTQYAMGWYRQAPGKEREFVARITGSGGRTYYADSVKGRFTISRDNAKNTVYLQMNSLKPEDTAVYYCAARDVRPYYVKPPVRYYYWGQGTQVTVSS”, “high polyreactivity”; in that of “QVQLVESGGGLVQAGGSLRLSCAASGSIFTQYAMGWYRQAPGKERELVARITGSGGRTYYADSVKGRFTISRDNAKNTVYLQMNSLKPEDTAVYYCAARDVRPYYVKPPVRYYYWGQGTQVTVSS”, “high polyreactivity”.
In the case of “QVQLVESGGGLVQAGGSLRLSCAASGSIFTQYTMGWYRQAPGKERELVAAISRSGGRTYYADSVKGRFTISRDNSKNTVYLQMKSLKPEDTAVYYCAAEYTDKYEYWGQGTQVTVSS” it was “high polyreactivity”; in that of “QVQLVESGGGLVQAGGSLRLSCAASGSIFTRNAMGWYRQAPGKERELVASISYSGGNTYYADSVKGRFTISRDNAKNTVYLQMNSLKPEDTAVYYCNARRWFYLLYGYDYWGQGTQVTVSS”, “high polyreactivity”.
With “QVQLVESGGGLVQAGGSLRLSCAASGSIFTRYVMGWYRQARGKERELVASISGRGSSTYYADSVKGRFTISRDNAKNTVYLQMNSLKPEDTAVYYCAAEIVVFYSEGQRNTFYYWGQGTQVTVSS”, the “polyreactivity (PSR sort gate)” value was “high polyreactivity”.
On to “QVQLVESGGGLVQAGGSLRLSCAASGSIFTSNAMGWYRQAPGKERELVAVISRRGGSTYYADSVKGRFTISRDNAKNTVYLQMNSLKPEDTAVYYCARRPYSYTRYEYWGQGTQVTVSS”, for which the “polyreactivity (PSR sort gate)” value is on record as “low polyreactivity”.
Then “QVQLVESGGGLVQAGGSLRLSCAASGSIFTSYAMVWYRQAPGKERELVAAITSGGSTYYAHSVKGRFTISRDNAKKTVYLLMNSLKPEDTAVYYCAALQVRTSKLHMGYWGQGTQVTVSS”, with “low polyreactivity”; and “QVQLVESGGGLVQAGGSLRLSCAASGSIFTTYAMGWSRQAPGKERELVAAITTSGGRTYYADSVKGRFTISRDNAKNTVYLQMNSLKPDDTAVYYCNAVRGGRYGLDYWGQGTQVTVSS”, with “high polyreactivity”.
Then “QVQLVESGGGLVQAGGSLRLSCAASGSIFTVNAMGWYIQAPGIERELVAAIDGSSGSTNYADSVKGRFTISRDIAKNTVYLQMNSLKPEDTAVYYCAADWSYEYGYWGQGTQVTVSS”, with “low polyreactivity”.
Then “QVQLVESGGGLVQAGGSLRLSCAASGSIFTVNAMGWYRQAPGKEMEFVAAITGGGTSTYYADSVKGRFTISRDNAKNTVYLQMNSLTPEVTAVYYCAATTYHYSPTYGYWGQGTQVTVSS”, with “low polyreactivity”; and “QVQLVESGGGLVQAGGSLRLSCAASGSIFTVNAMGWYRQAPGKERELVAAISDSGGSTYYADSVKGRFTISRDNAKNTVYLQMISLKPEDTAVYYCAVEIYYFVYGISYDYWGQGTQVTVSS”, with “high polyreactivity”.
As to “QVQLVESGGGLVQAGGSLRLSCAASGSIFTVYAMGWYRQAPGKERELVAAINWSDGDTYYADSVKGRFTISRDNAKNTVYLQMNSLKPEDTAVYYCAAEGIYLILWYGYVEYDYWGQGTQVTVSS”, the “polyreactivity (PSR sort gate)” value was “low polyreactivity”.
On to “QVQLVESGGGLVQAGGSLRLSCAASGSIFTVYAMGWYRQAPGKESELVASIRFSSGRTYYADSVKGRFTISRDNAKNTVYLQMNSLKQEDTAVYYCASETVSWYRYYYWGQGTQVTVSS”, for which the “polyreactivity (PSR sort gate)” value is reported as “high polyreactivity”.
Then “QVQLVESGGGLVQAGGSLRLSCAASGSIFTVYDMGWYRQAPGKERELVAAIDSSGGSTYYADSVKGRFTISRDNAKNTVYLQMNSLKPEDTAVYYCAADGDTTSPTYYIFWSGEFDYWGQGTQVTVSS”, with “low polyreactivity”.
Then “QVQLVESGGGLVQAGGSLRLSCAASGSIFTYNAMGWYRQAPGKERELVAAISWSGGSRYYADSVKGRFTISRDNAKNTVYLQMNSLKPVDTAVYYCAAALQYRLYFYPKYDYWGQGTQVTVSS”, with “high polyreactivity”.
Then “QVQLVESGGGLVQAGGSLRLSCAASGSIFTYNTMGWYRQAPGKERELVATISWSGGRTYYADSVKGRFTISRDNAKNTVYLQMNSLKPEDTAVYYCAAGYYYGYPPRDYWGQGSQVTVSS”, with “high polyreactivity”.
Consider “QVQLVESGGGLVQAGGSLRLSCAASGSIFTYYAMGWYRPAPGKERELVAAISSDGSTTYADSVKGRFTISRDNAKNTVYLQMNSLKPEDTAVYYCAASQFYFYYSPDGYDFWGQGTQVTVSS”, for which the “polyreactivity (PSR sort gate)” value is reported as “low polyreactivity”.
Then “QVQLVESGGGLVQAGGSLRLSCAASGSIFTYYAMGWYRQAPGKEMELVAAISWSGGSTYYADSVKGRFTISRDNAKNTVYLQLNSLKPEDTAVYYCAKRYRKGRAYPGYEYWGQGTQVTVSS”, with “low polyreactivity”; and “QVQLVESGGGLVQAGGSLRLSCAASGSIFTYYAMGWYRQAPGKERELVAAISASGGSTYYADSVKGRFTISRDNAKNTVYLQMNSLKPEDTAVYYCAADYRRSGGGNLPYDNDYWGQVTQVTVSS”, with “high polyreactivity”.
In the case of “QVQLVESGGGLVQAGGSLRLSCAASGSIFTYYAMGWYRQAPGKERELVAAISRRGGSTYYAVSVKGRFTISRDNAKNTVYLQMNSLKPEDTAVYYCNKVAYPRYYTGVNEFDYWGQGTQVTVSS” it was “high polyreactivity”; in that of “QVQLVESGGGLVQAGGSLRLSCAASGSIFVANAMGWYRQAPGKERELVAAISASGVTTYYADSVKGRFTISRDNAKNTVYLQMNSLKPEDTAVYYCNADYGSDDDVVRYDYWGQGTQVTVSS”, “low polyreactivity”; in that of “QVQLVESGGGLVQAGGSLRLSCAASGSIFVANAMGWYRQAPGKERELVAAISVRGGRTYYADSVKGRFTISRDNAKNTVYLQMNSLKPEDTAVYYCARVLRSDVADYDYWGQGTQVTVSS”, “high polyreactivity”.
Then “QVQLVESGGGLVQAGGSLRLSCAASGSIFVDYAMGWSRQAPGKERELVAAITSGGRTNYADSVKGRFTISRDNAKNTVYLQMNSLKPEDTAVYYCNKTRYTNYYTTTFDYWGQGTQVTVSS”, with “low polyreactivity”.
As to “QVQLVESGGGLVQAGGSLRLSCAASGSIFVDYAMGWYRQAPGKEMELVAAISSGGGSTYYADSVKGRFTISRDNAKNTVYLQMNSLKPEDTAVYYCAASVYGQHAGPGRWYTFYYWGQGTQVTVSS”, the “polyreactivity (PSR sort gate)” value is recorded as “low polyreactivity”.
Then “QVQLVESGGGLVQAGGSLRLSCAASGSIFVENAMGWYRQAPGKERELVAAISSDASTNYADSVKGRFTISRDNAKNTVYLQMNSLKPEDTAVYSCAAGYNPHGQYDYWGQGTQVTVSS”, with “low polyreactivity”; and “QVQLVESGGGLVQAGGSLRLSCAASGSIFVEYAMGWYRQAPGKERELVSAIRWRGGSTNYADSVKGRFTISRDTAKNTVYLQMNSLNREDTAVYYCNARHPASGDLYRMDYWGQGTQVTVSS”, with “low polyreactivity”; and “QVQLVESGGGLVQAGGSLRLSCAASGSIFVGNAMGWYRQAPGKERELVAAINSGGSTNYADSVKGRFTISRDNAKNTVYLQMNSLKTEDTAVYYCAADDDYCRILQGDQSDDYWGQGTQVTVSS”, with “low polyreactivity”.
In the case of “QVQLVESGGGLVQAGGSLRLSCAASGSIFVGTAMGWYRQAPGKERELVADINSGGSTNYADSVKGRVTISRDNAKNTVYLQMNSLKPEDTAVSYCAKSAVSGTYDYWGQGTQVTVSS” it was “low polyreactivity”; in that of “QVQLVESGGGLVQAGGSLRLSCAASGSIFVGYAMGWYRLAPGKERELVASITNGDSTNYADSVKGRFTISRDNAKNTVYLQMNSLKPEDTAVYYCAADYYSFHPSGWYGYEYWGQGTQVTVSS”, “low polyreactivity”; in that of “QVQLVESGGGLVQAGGSLRLSCAASGSIFVGYAMGWYRQAPGKERELVAAISKSGGSTYYADSVKGRFTISRDNAKNTDYLQMNSLKPEDTAVYYCATRTHRRGNYLSITHEYWGQGTQVTVSS”, “high polyreactivity”.
